According to US20250268980A1, “AN ANTICANCER THERAPY TARGETING RAS AND OTHER ONCOGENIC SIGNALS BY INHIBITION OF DYNAMIC BLEBBING AND/OR SEPTINS” (THE BOARD OF REGENTS OF THE UNIVERSITY OF TEXAS SYSTEM, priority 2022, published 2025):

Tests used:
SEPTIN7 (human) [1] = biological target: SEPTIN7 (human) (UniProt Q16181); assay: HaloLink pulldown from MV3 cells, LC-MS/MS
SEPTIN11 (human) [2] = biological target: SEPTIN11 (human) (UniProt Q9NVA2); assay: HaloLink pulldown from MV3 cells, LC-MS/MS
SEPTIN9 (human) [3] = biological target: SEPTIN9 (human) (UniProt Q9UHD8); assay: HaloLink pulldown from MV3 cells, LC-MS/MS
Sequence of SEPTIN9 (human) (Q9UHD8 whole entry): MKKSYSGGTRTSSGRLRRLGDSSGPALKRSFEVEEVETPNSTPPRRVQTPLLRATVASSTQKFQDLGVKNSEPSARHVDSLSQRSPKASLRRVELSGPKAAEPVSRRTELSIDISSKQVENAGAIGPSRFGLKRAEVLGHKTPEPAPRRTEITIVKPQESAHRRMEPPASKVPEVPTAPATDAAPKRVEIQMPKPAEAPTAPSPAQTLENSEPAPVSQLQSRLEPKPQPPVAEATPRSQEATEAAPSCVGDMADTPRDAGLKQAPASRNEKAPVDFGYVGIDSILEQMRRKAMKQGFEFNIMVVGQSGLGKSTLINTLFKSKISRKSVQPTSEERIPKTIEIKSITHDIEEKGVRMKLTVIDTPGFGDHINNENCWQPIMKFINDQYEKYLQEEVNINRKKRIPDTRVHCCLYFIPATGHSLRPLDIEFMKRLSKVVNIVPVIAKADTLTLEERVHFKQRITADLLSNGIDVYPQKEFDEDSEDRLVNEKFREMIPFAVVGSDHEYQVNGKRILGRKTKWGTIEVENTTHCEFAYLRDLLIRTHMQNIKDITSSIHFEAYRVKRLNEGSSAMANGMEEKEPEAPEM

SEPTIN8 (human) [4] = biological target: SEPTIN8 (human) (UniProt Q92599); assay: HaloLink pulldown from MV3 cells, LC-MS/MS
Sequence of SEPTIN8 (human) (Q92599 2-483 limits assumed): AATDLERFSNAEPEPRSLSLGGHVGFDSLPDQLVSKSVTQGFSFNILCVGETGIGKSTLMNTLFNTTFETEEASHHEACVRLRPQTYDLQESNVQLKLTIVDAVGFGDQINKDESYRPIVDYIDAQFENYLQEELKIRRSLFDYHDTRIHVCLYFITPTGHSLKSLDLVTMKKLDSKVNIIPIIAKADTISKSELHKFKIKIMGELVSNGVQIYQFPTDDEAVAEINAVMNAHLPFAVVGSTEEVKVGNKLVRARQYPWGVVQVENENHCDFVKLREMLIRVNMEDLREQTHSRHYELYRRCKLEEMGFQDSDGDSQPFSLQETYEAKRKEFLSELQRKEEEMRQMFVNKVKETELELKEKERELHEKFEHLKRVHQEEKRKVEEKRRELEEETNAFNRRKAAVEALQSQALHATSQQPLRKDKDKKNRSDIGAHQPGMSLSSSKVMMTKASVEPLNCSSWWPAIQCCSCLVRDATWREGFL

SEPTIN6 (human) [5] = biological target: SEPTIN6 (human) (UniProt Q14141); assay: HaloLink pulldown from MV3 cells, LC-MS/MS
Sequence of SEPTIN6 (human) (Q14141 2-434 limits assumed): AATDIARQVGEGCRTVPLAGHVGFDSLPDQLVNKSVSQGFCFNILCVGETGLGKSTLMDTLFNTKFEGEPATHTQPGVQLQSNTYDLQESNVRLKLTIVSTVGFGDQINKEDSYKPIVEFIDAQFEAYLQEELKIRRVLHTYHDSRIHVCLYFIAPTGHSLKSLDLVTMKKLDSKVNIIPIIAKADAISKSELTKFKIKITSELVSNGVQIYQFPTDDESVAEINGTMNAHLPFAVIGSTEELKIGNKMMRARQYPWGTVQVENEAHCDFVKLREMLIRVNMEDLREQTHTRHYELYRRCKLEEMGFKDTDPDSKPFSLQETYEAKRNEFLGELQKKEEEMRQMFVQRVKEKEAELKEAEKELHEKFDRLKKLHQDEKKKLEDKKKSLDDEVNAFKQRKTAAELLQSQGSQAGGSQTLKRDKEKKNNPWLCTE

SEPTIN10 (human) [6] = biological target: SEPTIN10 (human) (UniProt Q9P0V9); assay: HaloLink pulldown from MV3 cells, LC-MS/MS
Sequence of SEPTIN10 (human) (Q9P0V9 whole entry): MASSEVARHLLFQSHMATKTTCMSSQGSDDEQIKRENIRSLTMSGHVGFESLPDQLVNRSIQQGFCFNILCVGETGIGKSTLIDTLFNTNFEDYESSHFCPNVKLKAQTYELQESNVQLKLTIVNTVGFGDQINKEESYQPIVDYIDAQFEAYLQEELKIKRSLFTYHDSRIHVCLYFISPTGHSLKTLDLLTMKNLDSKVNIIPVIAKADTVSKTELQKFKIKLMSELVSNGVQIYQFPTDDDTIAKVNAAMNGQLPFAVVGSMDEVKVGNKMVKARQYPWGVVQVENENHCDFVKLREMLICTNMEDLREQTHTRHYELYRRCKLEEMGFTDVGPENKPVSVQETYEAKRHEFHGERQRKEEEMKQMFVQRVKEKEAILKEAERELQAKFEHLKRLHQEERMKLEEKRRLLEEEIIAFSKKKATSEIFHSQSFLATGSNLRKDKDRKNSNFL

SEPTIN2 (human) [7] = biological target: SEPTIN2 (human) (UniProt Q15019); assay: HaloLink pulldown from MV3 cells, LC-MS/MS
Sequence of SEPTIN2 (human) (Q15019 whole entry): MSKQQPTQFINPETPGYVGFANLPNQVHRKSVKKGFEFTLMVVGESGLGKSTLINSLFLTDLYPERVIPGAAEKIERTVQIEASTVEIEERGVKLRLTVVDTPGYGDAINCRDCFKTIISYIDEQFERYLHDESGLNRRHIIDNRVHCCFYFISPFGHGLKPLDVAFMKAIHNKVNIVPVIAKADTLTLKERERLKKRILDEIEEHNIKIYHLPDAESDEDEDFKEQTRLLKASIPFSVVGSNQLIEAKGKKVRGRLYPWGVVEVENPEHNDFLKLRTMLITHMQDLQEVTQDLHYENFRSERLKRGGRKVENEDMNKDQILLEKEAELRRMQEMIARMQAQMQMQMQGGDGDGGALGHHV

SEPTIN7 (human) [8] = biological target: SEPTIN7 (human) (UniProt Q16181); assay: HaloLink pulldown from unperturbed A375 cells, LC-MS/MS
SEPTIN11 (human) [9] = biological target: SEPTIN11 (human) (UniProt Q9NVA2); assay: as above
SEPTIN9 (human) [10] = biological target: SEPTIN9 (human) (UniProt Q9UHD8); assay: as above
SEPTIN8 (human) [11] = biological target: SEPTIN8 (human) (UniProt Q92599); assay: as above
SEPTIN6 (human) [12] = biological target: SEPTIN6 (human) (UniProt Q14141); assay: as above
SEPTIN10 (human) [13] = biological target: SEPTIN10 (human) (UniProt Q9P0V9); assay: as above
SEPTIN2 (human) [14] = biological target: SEPTIN2 (human) (UniProt Q15019); assay: as above

Sequence of SEPTIN11 (human) (Q9NVA2 2-429 limits assumed): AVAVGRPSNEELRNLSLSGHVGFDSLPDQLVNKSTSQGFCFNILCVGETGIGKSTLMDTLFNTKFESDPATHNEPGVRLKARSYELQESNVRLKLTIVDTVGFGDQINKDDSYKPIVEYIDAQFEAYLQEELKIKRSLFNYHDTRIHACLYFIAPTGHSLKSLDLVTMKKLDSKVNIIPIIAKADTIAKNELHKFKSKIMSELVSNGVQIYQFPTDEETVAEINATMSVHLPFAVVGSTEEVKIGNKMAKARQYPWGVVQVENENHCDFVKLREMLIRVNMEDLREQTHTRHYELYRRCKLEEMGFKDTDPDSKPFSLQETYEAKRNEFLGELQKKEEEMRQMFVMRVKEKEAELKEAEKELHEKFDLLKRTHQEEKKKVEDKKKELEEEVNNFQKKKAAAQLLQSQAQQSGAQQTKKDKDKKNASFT
Sequence of SEPTIN7 (human) (Q16181 2-437 limits assumed): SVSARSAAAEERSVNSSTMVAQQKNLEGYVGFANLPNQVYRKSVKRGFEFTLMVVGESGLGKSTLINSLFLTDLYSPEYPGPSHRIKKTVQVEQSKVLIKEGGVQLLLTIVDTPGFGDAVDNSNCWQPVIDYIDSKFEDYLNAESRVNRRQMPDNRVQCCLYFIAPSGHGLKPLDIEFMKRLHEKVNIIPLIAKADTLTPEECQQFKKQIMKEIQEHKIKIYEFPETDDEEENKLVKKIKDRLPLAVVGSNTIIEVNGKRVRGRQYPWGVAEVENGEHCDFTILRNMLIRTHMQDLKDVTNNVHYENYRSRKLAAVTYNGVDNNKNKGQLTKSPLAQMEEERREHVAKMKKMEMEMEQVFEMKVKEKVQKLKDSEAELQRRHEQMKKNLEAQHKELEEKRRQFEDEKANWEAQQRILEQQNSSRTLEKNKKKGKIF

% of total protein abundance (SEPTIN7 (human) [1]): 2.41% | % of total septin abundance (SEPTIN7 (human) [1]): 29.9% | fold change between lysate and pulldown (% of total protein abundance) (SEPTIN7 (human) [1]): 120 fold | fold change between lysate and pulldown (% of total septin abundance) (SEPTIN7 (human) [1]): 3.39 fold | % of total protein abundance (SEPTIN11 (human) [2]): 0.08% | % of total septin abundance (SEPTIN11 (human) [2]): 0.94% | % of total protein abundance (SEPTIN9 (human) [3]): 1.85% | % of total septin abundance (SEPTIN9 (human) [3]): 23% | fold change between lysate and pulldown (% of total protein abundance) (SEPTIN9 (human) [3]): 61.7 fold | fold change between lysate and pulldown (% of total septin abundance) (SEPTIN9 (human) [3]): 1.78 fold | % of total protein abundance (SEPTIN8 (human) [4]): < 0.01% | % of total septin abundance (SEPTIN8 (human) [4]): 0.09% | fold change between lysate and pulldown (% of total septin abundance) (SEPTIN8 (human) [4]): -3.44 fold | % of total protein abundance (SEPTIN6 (human) [5]): 1.03% | % of total septin abundance (SEPTIN6 (human) [5]): 12.8% | fold change between lysate and pulldown (% of total protein abundance) (SEPTIN6 (human) [5]): 11.4 fold | fold change between lysate and pulldown (% of total septin abundance) (SEPTIN6 (human) [5]): -3.2 fold | % of total protein abundance (SEPTIN10 (human) [6]): 0.28% | % of total septin abundance (SEPTIN10 (human) [6]): 3.19% | fold change between lysate and pulldown (% of total protein abundance) (SEPTIN10 (human) [6]): 7 fold | fold change between lysate and pulldown (% of total septin abundance) (SEPTIN10 (human) [6]): -5.32 fold | % of total protein abundance (SEPTIN2 (human) [7]): 2.43% | % of total septin abundance (SEPTIN2 (human) [7]): 30.1% | fold change between lysate and pulldown (% of total protein abundance) (SEPTIN2 (human) [7]): 60.8 fold | fold change between lysate and pulldown (% of total septin abundance) (SEPTIN2 (human) [7]): 1.5 fold | % of total protein abundance (SEPTIN7 (human) [8]): 1.48% | % of total septin abundance (SEPTIN7 (human) [8]): 21.1% | fold change between lysate and pulldown (% of total protein abundance) (SEPTIN7 (human) [8]): 74 fold | fold change between lysate and pulldown (% of total septin abundance) (SEPTIN7 (human) [8]): 1.35 fold | % of total protein abundance (SEPTIN11 (human) [9]): < 0.01% | % of total septin abundance (SEPTIN11 (human) [9]): 0.12% | fold change between lysate and pulldown (% of total septin abundance) (SEPTIN11 (human) [9]): -44.7 fold | % of total protein abundance (SEPTIN9 (human) [10]): 1.55% | % of total septin abundance (SEPTIN9 (human) [10]): 22.1% | fold change between lysate and pulldown (% of total protein abundance) (SEPTIN9 (human) [10]): 77.5 fold | fold change between lysate and pulldown (% of total septin abundance) (SEPTIN9 (human) [10]): 1.62 fold | % of total protein abundance (SEPTIN8 (human) [11]): < 0.01% | % of total septin abundance (SEPTIN8 (human) [11]): 0.02% | % of total protein abundance (SEPTIN6 (human) [12]): 1.67% | % of total septin abundance (SEPTIN6 (human) [12]): 23.8% | fold change between lysate and pulldown (% of total protein abundance) (SEPTIN6 (human) [12]): 55.7 fold | fold change between lysate and pulldown (% of total septin abundance) (SEPTIN6 (human) [12]): -1.33 fold | % of total protein abundance (SEPTIN10 (human) [13]): 0.51% | % of total septin abundance (SEPTIN10 (human) [13]): 7.23% | fold change between lysate and pulldown (% of total septin abundance) (SEPTIN10 (human) [13]): 3.77 fold | % of total protein abundance (SEPTIN2 (human) [14]): 1.81% | % of total septin abundance (SEPTIN2 (human) [14]): 25.7% | fold change between lysate and pulldown (% of total protein abundance) (SEPTIN2 (human) [14]): 60.3 fold | fold change between lysate and pulldown (% of total septin abundance) (SEPTIN2 (human) [14]): -1.03 fold
Substance: mouse SEPT6-HALO (from UniProt Q9R1T4 2-434)
